The values below come from US20220387487A1, “COMPOSITIONS AND METHODS FOR TREATMENT OF CANCER” (Aleta Biotherapeutics Inc., priority 2019, published 2022).

Residue numbers refer to the chain shown, from its start. Values joined by “and” are separate entries in the source; they are usually repeats but may differ in a detail not shown here. Equal values may be shown once.

One test deals with T1, CLEC12A (Homo sapiens, UniProt Q5QGZ9).
T1 construct: literature AbClonal (protein); Genscript (cDNA)
T1 sequence (Q5QGZ9 1-275 isoform Q5QGZ9-1): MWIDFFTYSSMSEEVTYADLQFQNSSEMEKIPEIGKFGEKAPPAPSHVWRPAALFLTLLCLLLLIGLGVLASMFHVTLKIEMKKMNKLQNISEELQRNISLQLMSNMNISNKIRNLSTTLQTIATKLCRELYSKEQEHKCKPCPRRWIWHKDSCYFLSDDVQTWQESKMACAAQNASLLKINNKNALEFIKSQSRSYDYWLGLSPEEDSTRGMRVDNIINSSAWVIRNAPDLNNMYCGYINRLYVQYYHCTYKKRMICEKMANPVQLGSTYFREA
Particulars: CLEC12A from AbClonal or cDNA from Genscript; previous studies; cited from earlier work.

For test [1], the target named is T2, biotinylated CD33 (UniProt P20138 18-259, biotinylated (site not stated)). Description: ELISA: fusion protein captured on FMC63, biotinylated CD33, HRP-SA.
In another test the target is T3, CD33 on U937 cells (UniProt P20138 18-364, limits assumed).
T3 construct: whole, on cells
Briefly: flow cytometry on U937 cells (cell line per paragraph 272), purified fusion protein, detection with FMC63-PE, % Binding; the cells carry both CLEC12A and CD33, the value is for the whole cell and is not split between the two antigens.

The target in test [2] is T4, CLL-1 (CLEC12A) on CLL-1 positive cell lines (U937, OCI-AML-5) (human, UniProt Q5QGZ9 1-265).
T4 construct: whole, on cells; also called MICL
T4 sequence: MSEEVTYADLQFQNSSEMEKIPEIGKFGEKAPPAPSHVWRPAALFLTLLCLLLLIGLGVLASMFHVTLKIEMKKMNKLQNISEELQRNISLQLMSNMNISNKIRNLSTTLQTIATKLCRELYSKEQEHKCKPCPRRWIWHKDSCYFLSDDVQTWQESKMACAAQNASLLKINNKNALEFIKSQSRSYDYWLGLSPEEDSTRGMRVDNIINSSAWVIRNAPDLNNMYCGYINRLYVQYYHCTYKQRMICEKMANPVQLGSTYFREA
The description is as above.

Test [3] addresses T4, CLL-1 (CLEC12A) on CLL-1 positive cell …. Briefly: cell-based or functional assay.
The target in test [4] is T5, full-length CLEC12A, amino acid 254 K version, on transfected HEK-293T cells (Homo sapiens (Human), UniProt Q5QGZ9 1-265).
T5 construct: GenScript cDNA, UniProt Q5QGZ9-1 as printed; also called K form; K version of CLEC12A
T5 sequence: T1 sequence (Q5QGZ9 1-275 isoform Q5QGZ9-1)
Description: flow cytometry on transfected HEK-293T cells, HIB19-PE detection. Background: In flow cytometry, cells or beads pass a laser one at a time.

The target in test [5] is T4, CLL-1 (CLEC12A) on CLL-1 positive cell …. Briefly: flow cytometry on CLL-1 positive U937 cells, FMC63-PE detection.
Test [6] concerns the target CLEC12A as named in the ELISA column of Table 8 (UniProt Q5QGZ9). Description: ELISA (protocol as printed: FMC63 coat, fusion protein titrated, HRP anti-His). Background: ELISA stands for enzyme-linked immunosorbent assay.
Test [7] concerns the target T2, biotinylated CD33. Briefly: ELISA: fusion protein captured on FMC63, biotinylated CD33 at 0.5 µg/ml, HRP-SA.
Test [8] concerns the target T4, CLL-1 (CLEC12A) on CLL-1 positive cell …. Briefly: flow cytometry on U937 cells, purified fusion protein, a-His-PE detection, % Binding.
Test [9] shares this target. Description: flow cytometry on CLL-1 positive U937 cells, expressed fusion protein, detection with FMC63-PE, % Binding.
For test [10] the target is unchanged. Description: flow cytometry on U937 cells (cell line per paragraph 272), purified fusion protein, detection with FMC63-PE, % Binding.
The target of test [11] is T6, full-length CLEC12A, version with Q at amino acid 254, on transfected HEK-293T cells (Homo sapiens (Human), UniProt Q5QGZ9 1-265).
T6 construct: Generated by mutagenesis of the K version; also called Q form
T6 sequence: T1 sequence (Q5QGZ9 1-275 isoform Q5QGZ9-1) with K254Q
Description: flow cytometry on HEK-293T cells transfected with CLEC12A 'Q' version, purified fusion protein, detection with HIB19-PE, % Binding.

B1: VHH clone 2H3: anti-CLL-1/CLEC12A VHH (protein)
VHH: QVQLQESGGGLVQAGGSLRLSCVASGSIRSINVMGWYRQAPGKQRELVAACASDGNTYYADSVKGRFTISRDNAEKTVYLQMNNLKPDDTAVYYCDANSRGNYYSGQGTQVTVSS
B1: the “binding to CLEC12A containing a Lysine residue at amino acid 254” value with CLEC12A is reported as “did not bind”.

B2: anti-CD33 scFv-anti-CLL VHH (2H3)-CD19 variant (construct #440) (other)
chain: QVQLVQSGAEVKKPGESVKVSCKASGYTFTNYGMNWVKQAPGQGLEWMGWINTYTGEPTYADKFQGRVTMTTDTSTSTAYMEIRNLGGDDTAVYYCARWSWSDGYYVYFDYWGQGTSVTVSSGGGGSGGGGSGGGGSDIVMTQSPDSLTVSLGERTTINCKSSQSVLDSSTNKNSLAWYQQKPGQPPKLLLSWASTRESGIPDRFSGSGSGTDFTLTIDSPQPEDSATYYCQQSAHFPITFGQGTRLEIKGGGGSGGGGSGGGGSGGGGSQVQLQESGGGLVQAGGSLRLSCVASGSIRSINVMGWYRQAPGKQRELVAACASDGNTYYADSVKGRFTISRDNAEKTVYLQMNNLKPDDTAVYYCDANSRGNYYSGQGTQVTVSSTSGPGGQGAGGGGSGGGGSGGGGSGGGGSPEEPLVVKVEEGDTAALWCLKGTSDGPTQQLTWSRESPLKPFLKYSLGVPGLGVHVRPDAISVVIRNVSQQMGGFYLCQPGPPSEKAWQPGWTVNVEGSGELFRWNVSDLGGLGCGLKNRSSEGPSSPSGKLMSPKLYVWAKDRPEIWEGEPPCLPPRDSLNQSLSRDLTVAPGSTLWLSCGVPPDSVSRGPLSWTHVHPKGPKSLLSLELKDDRPARDMWVMGTSLMLPRATAQDAGKWYCHRGNLTMSFHLEITARPSRHHHHHH
B2: the concentration for a half-maximal effect (EC50) (commonly the concentration that produces a half-maximal response) in the test with biotinylated CD33 [1] is 0.0021 µg/mL and 0.0292 nM; with CD33 on U937 cells, 0.00796 µg/mL and 0.111 nM; in test [2], 0.00796 µg/mL and 0.111 nM.

B3: anti-CLL-1 VHH(2H3)-CD19 variant (construct #330) (other)
chain: QVQLQESGGGLVQAGGSLRLSCVASGSIRSINVMGWYRQAPGKQRELVAACASDGNTYYADSVKGRFTISRDNAEKTVYLQMNNLKPDDTAVYYCDANSRGNYYSGQGTQVTVSSTSGPGGQGAGGGGSGGGGSGGGGSGGGGSPEEPLVVKVEEGDTAALWCLKGTSDGPTQQLTWSRESPLKPFLKYSLGVPGLGVHVRPDAISVVIRNVSQQMGGFYLCQPGPPSEKAWQPGWTVNVEGSGELFRWNVSDLGGLGCGLKNRSSEGPSSPSGKLMSPKLYVWAKDRPEIWEGEPPCLPPRDSLNQSLSRDLTVAPGSTLWLSCGVPPDSVSRGPLSWTHVHPKGPKSLLSLELKDDRPARDMWVMGTSLMLPRATAQDAGKWYCHRGNLTMSFHLEITARPSRHHHHHH
notes: Fusion of anti-CLL-1 VHH 2H3, linker, CD19 variant extracellular domain and His tag; also called fusion protein #330; single VHH #330 fusion protein
With B3, in [3], the “CLEC12A-cell cytotoxicity (IC50 n = 2-3)” value came to 7.8 pM. In addition, in [4], the “fold weaker binding than to the Q form” value was greater than 10000 fold. Further, the concentration giving a half-maximal response (EC50) was 1000 pM in [5]; 13 pM in test [6]; 0.00114 µg/mL and 0.0261 nM in test [8]; 0.0449 µg/mL in test [9]; 0.00406 µg/mL and 0.0865 nM in test [10]; 0.0048 nM and 0.00021 µg/mL in test [11]. Further, in the test with biotinylated CD33 [7], the binding result is recorded as “no binding”.
